Measured values: paper PMC8136485, “Were Ancestral Proteins Less Specific?” (Molecular Biology and Evolution, 2021)
Values belong to the binder of their own block, whether it stands above or below them. Primed or numbered codes have the meaning given here. Ends that are not written are not given here. 5FAM′ = 5-carboxyfluorescein

How the values were obtained:
human S100A6 = human S100A6 (human, UniProt P06703 1-90); experiment: fluorescence polarisation; displacement of the 5FAM probe peptide by increasing unlabeled peptide; 2.4-4.2 µM protein (monomer) with probe at the same concentration; 50 mM TES, 100 mM NaCl, 0.01% Tween-20, pH 7.4; KD,apparent corrected for the probe; details: both partners purified
human S100A5 = target: T1, human S100A5 (human, UniProt P33763 1-92); experiment: as above; details: both partners purified
T1 sequence: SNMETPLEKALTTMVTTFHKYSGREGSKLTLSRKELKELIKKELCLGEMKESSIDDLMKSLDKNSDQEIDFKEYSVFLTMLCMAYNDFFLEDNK

Kd (human S100A6): 12.4 ± 2 µM
Kd (human S100A5): 2.6 ± 2 µM
B1: unlabeled probe peptide GFDWRWGMEALTGGGSAE (peptide)
peptide: GFDWRWGMEALTGGGSAE
notes: the methods name only the nine test peptides and the probe as ordered from Genscript

Kd (human S100A5): > 1000 µM
B2: peptide SRQTTSTHEWVVGGGSAE (peptide)
chain: SRQTTSTHEWVVGGGSAE
modifications: synthetic unlabelled peptide with free N-terminus; C-terminal state not printed. The Methods print the full 18-mer (12-mer + GGGSAE flank, matching the stated library design); the Results form with …

binding result (human S100A6): binds
binding result (human S100A5): binds
B3: probe peptide 5FAM-GFDWRWGMEALTGGGSAE (peptide)
peptide: {5FAM′}-GFDWRWGMEALTGGGSAE
notes: also called fluorescently labeled probe peptide; source: synthetic peptide, bought: Genscript (95% purity)
